Experimental data reported in patent US6534640B1, “Methods and compositions to alter the cell surface expression of phosphatidylserine and other clot-promoting plasma membrane phospholipids” (Blood Center Research Foundation, priority 1996, dated 2003).
“Also recorded” adds a separate entry of the source. One block for each molecule: values may come before it.

Key:
[1] = molecular target: T1, PL scramblase (Homo sapiens, UniProt O15162); settings: cited from earlier work
T1 sequence (O15162 1-318): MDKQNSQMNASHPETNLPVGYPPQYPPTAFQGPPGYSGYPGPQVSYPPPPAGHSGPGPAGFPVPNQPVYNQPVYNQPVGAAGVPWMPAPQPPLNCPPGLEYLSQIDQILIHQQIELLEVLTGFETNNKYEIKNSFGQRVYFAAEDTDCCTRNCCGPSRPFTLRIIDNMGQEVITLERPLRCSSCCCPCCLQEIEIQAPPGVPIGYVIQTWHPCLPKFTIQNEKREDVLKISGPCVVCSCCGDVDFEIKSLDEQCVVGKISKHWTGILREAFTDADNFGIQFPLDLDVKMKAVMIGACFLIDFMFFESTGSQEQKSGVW

[2] = molecular target: T2, human erythrocyte PL scramblase (Homo sapiens, UniProt O15162); assay: Treatment with hydroxylamine, then reconstitution into proteoliposomes and PL scramblase activity assay (NBD-PC); assay type: biochemical; settings: 1 M hydroxylamine, 1 hour, room temperature, neutral pH; assay in 2 mM Ca2+, 3 hours
T2 construct: PL scramblase purified from human erythrocytes; from tissue; host or cells: human erythrocyte ghost membranes
T2 sequence (O15162 1-318): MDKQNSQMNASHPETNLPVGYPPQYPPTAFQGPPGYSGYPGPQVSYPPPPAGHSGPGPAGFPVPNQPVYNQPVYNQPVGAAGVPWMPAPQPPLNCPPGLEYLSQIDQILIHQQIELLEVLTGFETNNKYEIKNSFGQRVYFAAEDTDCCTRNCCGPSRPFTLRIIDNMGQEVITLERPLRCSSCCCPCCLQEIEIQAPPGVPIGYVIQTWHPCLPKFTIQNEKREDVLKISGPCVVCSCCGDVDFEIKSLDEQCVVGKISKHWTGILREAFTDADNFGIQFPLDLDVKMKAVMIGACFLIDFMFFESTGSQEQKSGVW
Experimental: Treatment with Hydroxylamine. PL scramblase was incubated 1 hour room temperature in 1 M hydroxylamine, 25 mM octylglucoside, 1 M Tris-HCl at pH 7.4. Match control samples of the protein were identically incubated under these conditions, omitting hydroxylamine. After incubation, samples were dialyzed and reconstituted into PL proteoliposomes for assay of PL scramblase activity.
Membrane reconstitution and assay. PL scramblase was reconstituted into proteliposomes and activity determined as previously described(F. Bassé, et al., supra, 1996; J. G. Stout, et al, supra, 1997).
FIG. 11 illustrates inactivation of PL scramblase by hydroxylamine. Purified human erythrocyte PL scramblase was incubated 1 hour, room temperature, in the presence of 50 mM octylglucoside, 1M TrisHCl, and either 0 (control) or 1M (hydroxylamine) hydroxylamine at pH 7.2. Untreated refers to sample maintained in low ionic strength sample buffer at 4° C. . Each sample was then dialyzed and reconstituted into proteoliposomes for assay of PL scramblase activity using NBD-PC as detailed in Bassé, et al., supra, 1996 with modifications of Stout, et al., supra, 1997. Ordinate indicates percent of total NBD-PC flipped during 3 hours. Incubation was in 2 mM Ca^2+, with correction for background measured in 0.1 mM EGTA. The error bars denote mean±SD, n=7. Combined data of three independent experiments performed on different days.

[3] = system: Raji cells; assay: Prothrombinase assay of transfected Raji cells; assay type: cell-based, human; settings: transformed Raji cells, 2 μM A23187, vs clones expressing GFP alone
Experimental: Prothrombinase Assay. Prothrombinase activity of Raji cells was determined by modification of methods previously described for platelets, using the chromogenic thrombin substrate S2238 (P. J. Sims, et al., supra, 1988). Briefly, 1×10^5 Raji cells (transfected with either pEGFP-C2 or pEGFP-C2-PL scramblase) were suspended in 200 μl HBSS containing 1% BSA in the presence of 2 nM FVa, 1.4 μM prothrombin 2.5 mM CaCl2, and 4 μM dansylarginine-N-(3-ethyl-1,5-pentanediyl)amide (to inhibit feed-back activation by thrombin), and incubated at 37° C. Ca^2+-ionophore A23187 (2 μM), or DMSO (as solvent control) was added, and prothrombin conversion was initiated by addition of 2 nM Fxa. Thrombin generation was stopped after 2 minutes by dilution into 10 mM EGTA and samples were stored on ice. Aliquots were transferred to a 96-well plate, and thrombin generated was assayed in TBS containing 1% BSA in presence of 150 μM S2238 by monitoring time-dependent changes in absorbance at 405 nm using a Thermomax plate reader (Molecular Devices, Sunnyvale, Calif.). Thrombin activity was calculated using purified thrombin as standard.

[4] = molecular target: T1, PL scramblase; assay: PL scramblase activity: Ca2+-dependent transbilayer movement of NBD-PC in reconstituted PC/PS proteoliposomes; assay type: biochemical; design: PCR was performed on a full-length clone using the primers; made in house; host or cells: E. coli TB1 (pMAL-C2)
Experimental: Reconstitution of PL scramblase or scramblase fusion protein into proteoliposomes. Reconstitution and functional activity were performed essentially as previously described (F. Bassé, et al., J. Biol. Chem. 271:17205-17210, 1996; J. G. Stout, et al., J. Clin. Invest. 99:2232-2238, 1997). Briefly, a mixture of PC and PS (9:1 molar ratio) was dried under a stream of nitrogen and resuspended in 100 mM Tris, 100 mM KCl, 0.1 mM EGTA, pH 7.4 (Tris buffer). Protein samples to be reconstituted were added to the liposomes at a final lipid concentration of 4 mg/ml in the presence of 60 mM OG, and dialyzed overnight at 4° C. against 200 vol of Tris buffer containing 1 g/L Bio-Beads SM-2. To liberate PL scramblase from MBP, the proteoliposomes were incubated 3 h at room temperature in the presence of 1/40 (w/w) factor Xa. The digestion was terminated by addition of 100 μM Glu-Gly-Arg chloromethyl ketone. Completeness of the digest was monitored by SDS-PAGE. […]
PL Scramblase activity. Scramblase activity was measured as previously described (F. Bassé, et al., supra, 1996; J. G. Stout, et al., supra, 1997 and in U.S. Ser. No. 08/790,186). […] Proteoliposomes were diluted 25-fold in Tris buffer containing 4 mM EGTA and transferred to a stirred fluorescence cuvet at 23° C. Initial fluorescence was recorded (SLM Aminco 8000 spectrof luorimeter; excitation at 470 nm, emission at 532 nm), 20 mM dithionite was added, and the fluorescence continuously monitored for a total of 120 seconds. The difference in non-quenchable fluorescence observed in presence vs. absence of CaCl2 Was attributed to Ca^2+-induced change in NBD-PC located in the outer leaflet (F. Bassé, et al., supra, 1996; J. G. Stout, et al., supra, 1997; J. C. McIntyre and R.G. Sleight, Biochemistry 30:11819-11827, 1991). Ionized [Ca^2+] was calculated using FreeCal version 4.0 software (generously provided by Dr. Lawrence F. Brass, University of Pennsylvania, Philadelphia, Pa.). […]

Molecule: O[C@H](CS)[C@H](O)CS (racemic) [dithiothreitol]
PL scramblase activity after incubation in reducing agents [1]: retention of normal PL scramblase activity

Molecule: NO [hydroxylamine]
PL scramblase activity after incubation with hydroxylamine [2]: near complete loss; also recorded: nearly complete inactivation

specific PL mobilizing activity relative to the endogenous protein purified from the erythrocyte membrane ([4]; expressed and purified from E. coli, reconstituted in proteoliposomes): approximately 50%
B1: recombinant PL scramblase: Recombinant human PL scramblase (SEQ ID NO:2) expressed in E. coli as MBP fusion, liberated by factor Xa (protein, listed as Homo sapiens)
chain: MDKQNSQMNASHPETNLPVGYPPQYPPTAFQGPPGYSGYPGPQVSYPPPPAGHSGPGPAGFPVPNQPVYNQPVYNQPVGAAGVPWMPAPQPPLNCPPGLEYLSQIDQILIHQQIELLEVLTGFETNNKYEIKNSFGQRVYFAAEDTDCCTRNCCGPSRPFTLRIIDNMGQEVITLERPLRCSSCCCPCCLQEIEIQAPPGVPIGYVIQTWHPCLPKFTIQNEKREDVLKISGPCVVCSCCGDVDFEIKSLDEQCVVGKISKHWTGILREAFTDADNFGIQFPLDLDVKMKAVMIGACFLIDFMFFESTGSQEQKSGVW
cell capacity to catalyze the prothrombinase reaction upon entry of calcium into the cytosol [3]: increase
PL scramblase activity ([4]; 2 mM CaCl2, mean±SD of three measurements): 11.76±0.44 % of total NBD-PC flipped
Ca2+-dependent PL scramblase activity (transbilayer movement of NBD-PC) in liposomes ([4]; PC/PS liposomes, absence or presence of 2 mM CaCl2): PL scramblase activity was observed
